Data as given in PMC7117912.
Ends that are not written are not given here.

What was measured:
[1] = target: H2-D^b (mouse MHC I heavy chain ectodomain) refolded with human β2-microglobulin (mouse | human); assay: fluorescence polarisation; one-step dissociation, uncatalyzed: 300 nM MHC I loaded with TAMRA-labeled peptide, 1000-fold molar excess (300 µM) of unlabeled competitor peptide, no TAPBPR; 23°C, 1xHBS; one-phase exponential decay
[2] = target: HLA-A*02:01 (human MHC I heavy chain ectodomain, amino acids 1-278) refolded with human β2-microglobulin (human); assay: fluorescence polarisation

| Binder | koff [1] [s⁻¹] | koff [2] [s⁻¹] |
| --- | --- | --- |
| ASNC(TAMRA)NMETM [ASNC*NMETM (fluorescently labeled high-affinity peptide for H2-D^b)] | 0.0002 | – |
| FLPSDC(TAMRA)FPSF [FLPSDC*FPSF (fluorescently labeled medium-affinity peptide for HLA-A*02:01)] | – | 0.0019 |
| TQSC(TAMRA)NTQSI [TQSC*NTQSI (fluorescently labeled medium-affinity peptide for H2-D^b)] | 0.00253 | – |
